In PMC6796740:

B1: TR14 ST1-1 (40 nt) (structured_RNA)
RNA: GCUCAAUGCGUUCACGUUUAUUCACAUUUUUGAAUUGAGC
modifications: 2'-F pyrimidines presumed, not restated for truncates
B2: TR14 ST1-2 (32 nt) (structured_RNA)
RNA: AAUGCGUUCACGUUUAUUCACAUUUUUGAAUU
modifications: 2'-F pyrimidines presumed, not restated for truncates

Target: human transferrin receptor (hTfR, hTfR1) extracellular domain (Homo sapiens, UniProt P02786 89-760)
Test: SPR

human transferrin receptor (hTfR, hTfR1) extracellular domain, sequence (P02786 89-760): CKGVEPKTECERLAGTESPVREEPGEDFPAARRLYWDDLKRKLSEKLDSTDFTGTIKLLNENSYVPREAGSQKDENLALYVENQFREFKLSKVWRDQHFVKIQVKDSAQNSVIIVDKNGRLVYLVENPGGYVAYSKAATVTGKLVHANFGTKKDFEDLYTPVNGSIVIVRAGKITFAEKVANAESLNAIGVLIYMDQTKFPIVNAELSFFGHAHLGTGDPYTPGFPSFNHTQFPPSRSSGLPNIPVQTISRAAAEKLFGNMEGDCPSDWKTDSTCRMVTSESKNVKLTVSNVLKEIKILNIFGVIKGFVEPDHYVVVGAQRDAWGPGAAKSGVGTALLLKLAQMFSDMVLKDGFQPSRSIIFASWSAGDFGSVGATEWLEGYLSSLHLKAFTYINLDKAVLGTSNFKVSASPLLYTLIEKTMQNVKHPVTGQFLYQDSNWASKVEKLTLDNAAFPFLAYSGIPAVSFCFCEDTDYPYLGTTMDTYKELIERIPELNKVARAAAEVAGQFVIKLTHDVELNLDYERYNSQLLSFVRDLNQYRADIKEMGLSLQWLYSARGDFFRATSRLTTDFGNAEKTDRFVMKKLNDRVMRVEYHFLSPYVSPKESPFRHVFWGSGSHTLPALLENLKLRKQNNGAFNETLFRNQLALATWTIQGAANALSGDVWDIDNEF

Binder	binding result
B1	no binding
B2	no binding
